Source: patent publication US20160185837A1, “GIP AND GLP-1 RECEPTOR DUAL-AGONISTS FOR THE TREATMENT OF DIABETES” (Medimmune Limited, priority 2013, published 2016)
Values joined by “and” are separate entries in the source; they are usually repeats but may differ in a detail not shown here. Equal values may be shown once.

T1: human GIP receptor (human) (UniProt P48546)
T1 sequence (looked up): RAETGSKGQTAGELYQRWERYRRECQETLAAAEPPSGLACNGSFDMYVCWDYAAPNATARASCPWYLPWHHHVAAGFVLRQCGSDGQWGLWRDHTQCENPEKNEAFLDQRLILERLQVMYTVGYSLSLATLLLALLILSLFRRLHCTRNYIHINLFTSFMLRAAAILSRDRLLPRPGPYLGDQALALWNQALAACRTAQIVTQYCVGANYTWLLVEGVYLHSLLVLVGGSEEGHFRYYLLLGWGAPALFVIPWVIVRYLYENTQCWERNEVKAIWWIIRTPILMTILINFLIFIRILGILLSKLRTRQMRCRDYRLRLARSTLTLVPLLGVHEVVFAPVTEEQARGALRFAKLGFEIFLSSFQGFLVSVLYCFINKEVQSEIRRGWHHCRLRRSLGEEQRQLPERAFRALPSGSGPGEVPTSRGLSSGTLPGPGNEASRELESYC

T2: mouse GIP receptor (mouse) (UniProt Q0P543)
T2 sequence (looked up): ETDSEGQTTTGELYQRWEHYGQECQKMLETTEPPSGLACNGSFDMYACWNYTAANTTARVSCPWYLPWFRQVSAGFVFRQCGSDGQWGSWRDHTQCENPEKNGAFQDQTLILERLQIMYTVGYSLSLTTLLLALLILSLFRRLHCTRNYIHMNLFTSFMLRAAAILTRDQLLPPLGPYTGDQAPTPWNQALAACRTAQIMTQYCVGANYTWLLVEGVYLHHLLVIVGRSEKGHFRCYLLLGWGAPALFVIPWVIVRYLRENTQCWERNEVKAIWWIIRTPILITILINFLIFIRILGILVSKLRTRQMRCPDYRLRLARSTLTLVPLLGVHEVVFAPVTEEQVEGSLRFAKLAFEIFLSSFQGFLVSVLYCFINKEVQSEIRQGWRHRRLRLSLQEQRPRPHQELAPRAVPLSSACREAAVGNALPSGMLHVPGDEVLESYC

T3: rat GIP receptor (rat) (UniProt P43219)
T3 sequence (looked up): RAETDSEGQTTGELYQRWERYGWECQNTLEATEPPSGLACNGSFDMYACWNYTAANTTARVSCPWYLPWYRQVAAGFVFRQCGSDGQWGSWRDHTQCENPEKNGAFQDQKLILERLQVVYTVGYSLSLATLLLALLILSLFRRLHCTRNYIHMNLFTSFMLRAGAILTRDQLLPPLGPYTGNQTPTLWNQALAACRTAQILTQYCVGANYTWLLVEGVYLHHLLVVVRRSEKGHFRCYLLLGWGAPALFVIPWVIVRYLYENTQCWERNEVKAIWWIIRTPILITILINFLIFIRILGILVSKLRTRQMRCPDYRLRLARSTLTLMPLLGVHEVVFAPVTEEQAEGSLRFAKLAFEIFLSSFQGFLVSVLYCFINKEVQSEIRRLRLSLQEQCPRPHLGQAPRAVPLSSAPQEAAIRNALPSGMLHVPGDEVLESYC


Columns and labels:
Test in all cases: cell-based or functional assay
[1] = target: human GLP-1 receptor (human) (UniProt P43220)
Sequence of human GLP-1 receptor (human) (P43220 24-463): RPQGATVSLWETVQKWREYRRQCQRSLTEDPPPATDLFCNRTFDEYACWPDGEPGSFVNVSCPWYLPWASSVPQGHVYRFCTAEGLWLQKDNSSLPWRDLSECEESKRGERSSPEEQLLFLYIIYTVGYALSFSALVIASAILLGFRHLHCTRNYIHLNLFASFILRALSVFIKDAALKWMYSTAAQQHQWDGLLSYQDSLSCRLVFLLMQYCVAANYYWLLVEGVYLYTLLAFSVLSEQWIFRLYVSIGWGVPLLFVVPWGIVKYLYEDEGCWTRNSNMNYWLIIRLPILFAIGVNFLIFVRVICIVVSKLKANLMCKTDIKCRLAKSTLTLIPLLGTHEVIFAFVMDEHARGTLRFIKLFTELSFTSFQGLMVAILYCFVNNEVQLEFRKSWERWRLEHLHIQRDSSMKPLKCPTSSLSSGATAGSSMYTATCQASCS

[2] = target: human glucagon receptor (human) (UniProt P47871)
Sequence of human glucagon receptor (human) (P47871 26-477): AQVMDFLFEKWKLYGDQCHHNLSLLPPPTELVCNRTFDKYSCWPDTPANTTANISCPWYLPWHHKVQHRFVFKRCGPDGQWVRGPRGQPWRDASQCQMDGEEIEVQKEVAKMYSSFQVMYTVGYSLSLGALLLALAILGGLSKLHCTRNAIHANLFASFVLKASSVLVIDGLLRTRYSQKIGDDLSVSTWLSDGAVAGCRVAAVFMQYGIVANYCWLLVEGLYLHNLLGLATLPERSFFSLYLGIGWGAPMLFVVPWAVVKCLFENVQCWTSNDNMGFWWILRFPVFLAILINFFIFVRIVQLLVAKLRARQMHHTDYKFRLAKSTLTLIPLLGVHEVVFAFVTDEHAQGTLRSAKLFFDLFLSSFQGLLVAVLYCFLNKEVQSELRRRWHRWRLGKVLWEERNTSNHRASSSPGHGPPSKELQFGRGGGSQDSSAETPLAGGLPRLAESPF

[3] = target: T1, human GIP receptor (human)
[4] = target: T2, mouse GIP receptor (mouse)
rat GIP receptor (rat) = target: T3, rat GIP receptor (rat)
rat GLP-1 receptor (rat) = rat GLP-1 receptor (rat) (UniProt P32301)
Sequence of rat GLP-1 receptor (rat) (P32301 22-463): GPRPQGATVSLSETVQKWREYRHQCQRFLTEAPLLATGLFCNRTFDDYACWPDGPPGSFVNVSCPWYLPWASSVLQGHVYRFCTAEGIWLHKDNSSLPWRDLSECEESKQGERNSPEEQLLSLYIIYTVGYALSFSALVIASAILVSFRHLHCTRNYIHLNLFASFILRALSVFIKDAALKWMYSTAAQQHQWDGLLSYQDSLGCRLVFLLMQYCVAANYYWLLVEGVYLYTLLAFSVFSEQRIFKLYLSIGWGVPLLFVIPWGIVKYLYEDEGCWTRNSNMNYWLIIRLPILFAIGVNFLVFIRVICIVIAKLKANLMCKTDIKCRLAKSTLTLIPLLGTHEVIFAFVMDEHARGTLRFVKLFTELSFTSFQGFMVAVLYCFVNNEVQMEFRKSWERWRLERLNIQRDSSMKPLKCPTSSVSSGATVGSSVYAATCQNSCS

[5] = target: mouse GLP-1 receptor (mouse) (UniProt O35659)
Sequence of mouse GLP-1 receptor (mouse) (O35659 22-463): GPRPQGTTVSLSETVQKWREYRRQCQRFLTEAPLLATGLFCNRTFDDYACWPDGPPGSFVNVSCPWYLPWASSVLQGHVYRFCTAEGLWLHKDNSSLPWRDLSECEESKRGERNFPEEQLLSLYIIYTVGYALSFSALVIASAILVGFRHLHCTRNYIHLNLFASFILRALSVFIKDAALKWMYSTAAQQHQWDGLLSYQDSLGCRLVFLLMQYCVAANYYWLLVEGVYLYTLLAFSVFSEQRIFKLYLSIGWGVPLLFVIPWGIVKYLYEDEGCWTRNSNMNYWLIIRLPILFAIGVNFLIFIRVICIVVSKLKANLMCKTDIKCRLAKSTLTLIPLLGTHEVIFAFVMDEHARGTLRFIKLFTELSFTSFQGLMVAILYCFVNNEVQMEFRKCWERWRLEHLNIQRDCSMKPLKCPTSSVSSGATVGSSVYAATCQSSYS

Row | cAMP EC50, Batch 1 [3] [nM] | cAMP EC50 [1] [nM] | cAMP EC50 [2] [nM] | cAMP EC50 [4] [nM] | cAMP EC50 (rat GLP-1 receptor (rat)) [nM] | cAMP EC50 [5] [nM] | cAMP EC50 (rat GIP receptor (rat)) [nM] | cAMP EC50 [3] [nM] | Binder | also measured
1 | 0.0038 | – | – | – | – | – | – | – | IP188 (Fc fusion) YSEGTFISDYSIAMDKIHQQDFVNWLLAQKAPPGGGGGSGGGGSGGGGSGGGGSATHTCPPCPAPEF | cAMP EC50, Batch 1 [1]: 500 nM; cAMP EC50, Batch 1 [2]: 350 nM
2 | – | – | – | – | – | – | – | – | IP132 (Fc fusion) HGEGTFTSDVSSYLEGQAAKEFIAWLVKGGGGGGSGGGGSGGGGSGGGGSATHTCPPCPAPEF | cAMP EC50, Batch 2 [1]: 0.04 nM; cAMP EC50, Batch 2 [3]: 81 nM
3 | 540 | – | – | – | – | – | – | – | IP187 (Fc fusion) HGEGTFTSDVSSYLEGQAAKEFIAWLVKGAPPGGGGGSGGGGSGGGGSGGGGSATHTCPPCPAPEF | cAMP EC50, Batch 1 [1]: 0.037 nM
4 | 310 | – | – | – | – | – | – | – | IP238 (Fc fusion) HGEGTFTSDVSSYLEGQAAKEFIAWLVKGGGGGGSGGGGSGGGGSAESKYGPPCPPC | cAMP EC50, Batch 1 [1]: 0.058 nM
5 | 0.0026 | > 317 | > 317 | – | – | – | – | – | IP018 (Fc fusion) YSEGTFISDYSIAMDKIHQQDFVNWLLAQKAAAGGSGSTASSGSGSATGGGGAATHTCPPCPAPEF | cAMP EC50, Batch 1 [4]: 0.022 nM; cAMP EC50, Batch 2 [1]: 4200 nM; cAMP EC50, Batch 3 [1]: > 6350 nM; cAMP EC50, Batch 2 [2]: 480 nM; cAMP EC50, Batch 3 [2]: 720 nM; cAMP EC50, Batch 1 (rat GIP receptor (rat)): 0.0076 nM; cAMP EC50, Batch 2 [3]: 0.0051 nM and 0.0093 nM; cAMP EC50, Batch 3 [3]: 0.0064 nM; cAMP EC50, hGIPr (C3) line [3]: 0.8 nM
6 | – | 0.25 | > 163 | 2.3 | – | – | – | – | IP407 (Fc fusion) YSEGTFTSDYSKLLEEEAIRLFIEWLLAGGGGGGSGGGGSGGGGSGGGGSATHTCPPC | –
7 | – | 0.19 | 7.6 | 3.7 | 0.048 | 8.9 | > 113 | – | IP413 (Fc fusion) YSEGTFTSDYSKLLEEEASRLFIEWLLAGGGGGGSGGGGSGGGGSGGGGSATHTCPPC | –
8 | – | 0.082 | 21 | 2.6 | – | – | – | – | IP420 (Fc fusion) YSEGTFTSDYSKLLEEEATRLFIEWLLAGGGGGGSGGGGSGGGGSGGGGSATHTCPPC | –
9 | 83 | – | – | – | – | – | – | – | IP146 (Fc fusion) HGEGTFTSDVSSYLEGQAAKEFIAWLVKGAAAGGSGSTASSGSGSATGGGGAACPPCPAPEF | cAMP EC50, Batch 1 [1]: 0.049 nM; cAMP EC50, Batch 1 [2]: 650 nM
10 | – | > 17.2 | > 17.2 | 0.05 | – | – | – | – | IP404 (Fc fusion) YSEGTFTSLYRIHKERQAIDEFIAKLLKGGGSGGGGSGGGGSGGGGSGGGGSGGGGSGGGGSGGGGSACPPC | –
11 | – | > 166 | > 166 | 0.38 | – | – | – | – | IP408 (Fc fusion) YSEGTHTSDLRILLERQAIDEFIAKLLKGGGSGGGGSGGGGSGGGGSGGGGSGGGGSGGGGSGGGGSACPPC | –
12 | – | > 59 | > 59 | 0.012 | – | – | – | – | IP422 (Fc fusion) YSEGTHTSDLRILLERQAIDEFIAFLLKGGGSGGGGSGGGGSGGGGSGGGGSGGGGSGGGGSGGGGSACPPC | cAMP EC50, hGIPr (C3) line [3]: 1.8 nM
13 | – | 960 | > 2070 | 880 | 360 | > 2070 | 110 | 72 | IP343 (Fc fusion) YSEGTFTSDYAAAAERQAIDAFAAWLAAAAGGGGGSGGGGSGGGGSGGGGSA | –
14 | – | 0.66 | 1100 | 0.45 | 0.089 | 5.5 | 0.023 | 0.009 | IP330 (Fc fusion) YSEGTFTSDYSKLLERQAIDEFIALLLKGGGGGGGSGGGGSGGGGSGGGGSGGGGSGGGGSA | –
15 | – | 0.08 | 180 | 0.16 | 0.017 | 0.29 | 0.01 | 0.011 | IP346 (Fc fusion) YSEGTFTSDYSKLLERQAIDEFIAFLLKGGGGGGGSGGGGSGGGGSGGGGSGGGGSGGGGSA | cAMP EC50, hGIPr (C3) line [3]: 0.16 nM
16 | – | 0.29 | > 907 | 1.4 | 0.037 | 0.89 | 0.024 | 0.011 | IP348 (Fc fusion) YSEGTFTSDYSKLLERQAIDEFIASLLKGGGGGGGSGGGGSGGGGSGGGGSGGGGSGGGGSA | –
17 | – | 0.75 | > 1490 | 0.85 | 0.087 | 2.5 | 0.024 | 0.013 | IP347 (Fc fusion) YSEGTFTSDYSKLLERQAIDEFIAILLKGGGGGGGSGGGGSGGGGSGGGGSGGGGSGGGGSA | –
18 | – | 2.6 | > 1950 | 4 | 0.31 | 22 | 0.06 | 0.013 | IP331 (Fc fusion) YSEGTFTSDYSKLLERQAIDEFIADLLKGGGGGGGSGGGGSGGGGSGGGGSGGGGSGGGGSA | –
19 | 450 | – | – | – | – | – | – | – | IP193 (Fc fusion) HGEGTFTSDVSSYLEGQAAKEFIAWLVKGAAAGGSGSTASSGSGSATGGGGCPPCPAPEF | cAMP EC50, Batch 1 [1]: 0.064 nM; cAMP EC50, Batch 1 [2]: 780 nM
20 | 0.0085 | 4100 | 900 | – | – | – | – | 0.0078 | IP207 (Fc fusion) YAEGTFISDYSIAMDKIHQQDFVNWLLAQKGKKNDWKHNITQAAAGGSGSTASSGSGSATGGGGAATHTCPPCPAPELL | –
21 | – | 0.2 | – | 7.5 | 0.061 | 1 | 0.27 | 0.025 | IP226 (Fc fusion) YSEGTFTSDVSKLLERQAIDEFIAWLLKGGAAAGGSGSTASSGSGSATGGGGAATHTCPPCPAPEF | –
22 | – | 1.1 | – | 35 | 2.2 | 22 | 5.3 | 0.11 | IP250 (Fc fusion) YSEGTFTSDVSIAMDRQAIDEFIAWLLKGGAAAGGSGSTASSGSGSATGGGGAATHTCPPCPAPEF | –
23 | – | 16 | – | – | 18 | 80 | 72 | 2.5 | IP223 (Fc fusion) YSEGTFTSDVSSYMEEEAIDEFIAWLLKGGAAAGGSGSTASSGSGSATGGGGAATHTCPPCPAPEF | –
24 | 110 | – | – | – | – | – | – | – | IP203 (Fc fusion) HGEGTFTSDVSSYLEGQAAKEFIAWLVKGGAAAGGSGSTASSGSGSATGGGGAATHTCPPCPAPEF | cAMP EC50, Batch 1 [1]: 0.042 nM; cAMP EC50, Batch 1 [2]: > 650 nM
